Source: publication PMC10617019 (Nature cell biology, 2023)
Where no end group is shown, it is not given here. [ ]: non-standard residue; d: D form. Hyp = O=C(O)[C@@H]1C[C@@H](O)CN1

Target: pVHL in complex with elongin C and elongin B (VCB) (human, UniProt P40337 55-213; Q15370 1-118)
Experiment: fluorescence polarisation

- Kd: 5.9 µM
Binder: TLYYMA[Hyp]EHLNDVNA (also: FITC label, position not given here) [Fluorescein isothiocyanate-labelled RIPK1 peptide T189LYYMA(Hyp)EHLNDVNA203]
